Consider four substances from article PMC10213515.

This test has as its target FtsZ (UniProt P0A9A6). Kind of test: PL recruitment assay (SUV co-sedimentation by low-speed centrifugation, SDS-PAGE). To be noted: FtsZ 3 μM, GTP 2 mM, FtsA wild type or mutant 2.5 μM, SUVs 250 μg ml-1, ATP 4 mM; parent: 93.7.
Chain of UniProt P0A9A6 (P0A9A6 whole entry): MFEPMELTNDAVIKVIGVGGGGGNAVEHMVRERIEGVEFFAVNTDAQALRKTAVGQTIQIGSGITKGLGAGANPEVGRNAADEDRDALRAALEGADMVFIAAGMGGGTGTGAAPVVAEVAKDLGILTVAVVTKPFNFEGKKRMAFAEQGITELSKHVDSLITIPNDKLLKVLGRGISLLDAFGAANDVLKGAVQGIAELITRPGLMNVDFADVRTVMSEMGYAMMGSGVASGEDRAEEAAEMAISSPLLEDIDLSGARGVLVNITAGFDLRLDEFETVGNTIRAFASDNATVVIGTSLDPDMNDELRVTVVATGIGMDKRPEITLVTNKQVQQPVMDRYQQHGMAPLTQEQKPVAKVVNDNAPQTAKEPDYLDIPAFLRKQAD

“FtsA wild type (from UniProt P0ABH0) A188V”: the response was 95.3 % of total.

For “FtsA wild type (from UniProt P0ABH0) E14R”, the response was 83.8 % of total.

Take “FtsA wild type (from UniProt P0ABH0) S84L”: the response was 97.2 % of total.

“FtsA wild type (from UniProt P0ABH0) Y375A”: the response is 41.1 % of total.
